From PMC10572602, “Molecular Mechanism of STIL Coiled-Coil Domain Oligomerization” (International Journal of Molecular Sciences, 2023)
No end group written: not given here.

B1: STIL CCD_(718–749) A722L Q729L (peptide)
peptide: LSPDLYRFLTELDRQLRLLQAQIQRLLEAQSL-NH2
notes: STIL coiled-coil domain, residues 718-749, with A722L and Q729L; also called double mutant; source: synthetic peptide (Fmoc-SPPS on rink amide, RP-HPLC purified)
B2: STIL CCD_(718–749) Q729L (peptide)
peptide: LSPDAYRFLTELDRQLRLLQAQIQRLLEAQSL-NH2
notes: STIL coiled-coil domain, residues 718-749, with Q729L; also called STIL CCD Q729L; source: synthetic peptide (Fmoc-SPPS on rink amide, RP-HPLC purified)
B3: STIL CCD_(718–749) A722L (peptide)
peptide: LSPDLYRFLTEQDRQLRLLQAQIQRLLEAQSL-NH2
notes: STIL coiled-coil domain, residues 718-749, with A722L; source: synthetic peptide (Fmoc-SPPS on rink amide, RP-HPLC purified)

Assays:
[1] = target: the molecule itself; assay: AUC; sedimentation velocity, 10 µM peptide, c(s) distribution; 20 °C, 25 mM sodium phosphate pH 6.8, ionic strength 154 mM (NaCl)
[2] = target: the molecule itself; assay: AUC; sedimentation velocity, 100 µM peptide, c(s) distribution; 20 °C, sodium phosphate pH 6.8 with NaCl
[3] = target: the molecule itself; assay: AUC; sedimentation equilibrium, starting concentrations 5, 10 and 20 µM, unlabelled peptide, no DMSO; 20 °C, sodium phosphate pH 6.8 with NaCl; fitted to a single ideal species (N) and, for the WT, to a dimer-tetramer model (apparent KD: tetramer to dimers)

Protein | stoichiometry N [1] | stoichiometry N [2] | stoichiometry N [3]
B1 | 4.22 | 4 | 3.24 ± 0.03
B2 | 3.56 | 4 | 3.47 ± 0.05
B3 | 3.92 | 4 | 3.51 ± 0.02
